Residue numbers refer to the chain shown, from its start.

The labels stand for the following.
B1: Gal4-DBD-fused wild-type canine BRC3 [canine] / VP16 transactivation domain-fused canine RAD51 [canine] (parent complex)
chain 1: GQNIKDFDTFYLSFQTASRKNIRVSKESLNKARSLLNQKWTEEELNNFSDSLNSELLPGIDIKKTDISNHEVI
chain 2: MAMQMQLEANADTSVEEESFGPQPISRLEQCGINANDVKKLEEAGFHTVEAVAYAPKKELISIKGISEAKADKILTEAAKLVPMGFTTATEFHQRRSEIIQITTGSKELDKLLQGGIETGSITEMFGEFRTGKTQICHTLAVTCQLPIDRGGGEGKAMYIDTEGTFRPERLLAVAERYGLSGSDVLDNVAYARGFNTDHQTQLLYQASAMMVESRYALLIVDSATALYRTDYSGRGELSARQMHLARFLRMLLRLADEFGVAVVITNQVVAQVDGAAMFAADPKKPIGGNIIAHASTTRLYLRKGRGETRICKIYDSPCLPEAEAMFAINADGVGDAKD
B2: Gal4-DBD-fused wild-type canine BRC3 [canine] / VP16 transactivation domain-fused human RAD51 [human] (parent complex)
chain 1: B1 chain 1
chain 2: B1 chain 2 with S62N, T76A, G194A

The variants in one assay derive from B1. Put plainly: mammalian two-hybrid assay; HeLa cells; luciferase activity determined 48 h after transfection; n = 3; read off a plot.
As to chain 1 K26R, the response was ~120 Firefly/Renilla.
chain 1 T16P: the response was ~3.5 Firefly/Renilla.

The variants in the next assay derive from B2. The description is as above.
Take chain 1 T16P: the response is ~2.2 Firefly/Renilla.
In the case of chain 1 K26R, the response was ~34 Firefly/Renilla.

These data come from paper PMC3470543, “Effects of the Missense Mutations in Canine BRCA2 on BRC Repeat 3 Functions and Comparative Analyses between Canine and Human BRC Repeat 3” (PLoS ONE, 2012).
